Experiment: soluble on expression in E. coli; label from the status in PepcDB or PDB records

| Sequence | soluble on expression in E. coli |
| --- | --- |
| SLSPRRLRLLLVDENPTARAVIGRRLSHRHYDVTVVEDGFAAQKTLIIQPSDIILIDMDLQLLPAIGTMEKIRAAHPAGHACIVMIGGASDTPKMIAALDAGADDHIVKPFDFDMLDARLRRVHARAERVNLLSRQYAELDARIARRAMELGETRETLRQVELDRARLMASVDHLQAEVARLSAREG | soluble |
| SLTPLRVLIVEDDPRIAQLHQRFCEKVAGFEVSGLAATYEEADELATILEPDLLLLDLYLPDGNGMDLLRQLRSRGQEVDVVLITAAKDVAAVQQALRAGAFDYIVKPAVFARFEEALTKFAAYRQQLEQGDVLNQNDIDQLLHSHHQPKVMDRGAVPKGIDPLTLTKIRQVFADQEQQGLSAEEVGAQIGASRSTARRYLEYMVSISELTADVVYGTVGRPERRYFSFENEG | soluble |
| SLVNLKVNLLLVDYRGYGKSEGEASEEGLYLDSEAVLDYVMTRPDLDKTKIFLFGRSLGGAVAIHLASENSHRISAIMVENTFLSIPHMASTLFSFFPMRYLPLWCYKNKFLSYRKISQCRMPSLFISGLSDQLIPPVMMKQLYELSPSRTKRLAIFPDGTHNDTWQCQGYFTALEQFIKEVVKSHSPEEMAKTSSNVTII | soluble |
| SMKLKSNQTRTYDGDGYKKRAACLCFRNDTEQEVLLVSSSRHPDKWIVPGGGMEPEEEPNVAAAREVCEEAGVKGTLGRLVGIFENRDRKHRTYVYVLIVTEVLEDWEDSVNIGRKREWFKIDDAIQVLQCHKPVQASYFTALQEGCLNSNGTPLVATIGGGDLSPTYSINQSSVSDMR | soluble |
| SMSAPAGEPPAPVRLRKNVCYVVLAVFLSEQDEVLLIQEAKRECRGSWYLPAGRMEPGETIVEALQREVKEEAGLHCEPETLLSVEERGPSWVRFVFLARPTGGILKTSKEADAESLQAAWYPRTSLPTPLRAHDILHLVELAAQYRQQARHPLIL | soluble |
| SMSPEPDCQKQFQAAVSVIQNLPKNGSYRPSYEEMLRFYSYYKQATMGPCLVPRPGFWDPIGRYKWDAWNSLGKMSREEAMSAYITEMKLVAQKVIDTVPLGEVAE | soluble |
| SMVLLTMIARVADGLPLAASMQEDEQSGRDLQQYQSQAKQLFRKLNEQSPTRCTLEAGAMTFHYIIEQGVCYLVLCEAAFPKKLAFAYLEDLHSEFDEQHGKKVPTVSRPYSFIEFDTFIQKTKKLYIDSRARRNLGSINTELQDVQRIMVANIEEVLQRGEALSALDSKANNLSSLSKKYRQDAKYLNMRSTYAK | soluble |
| SNAGMTGFVINTRRAPFDDWRLREALLLAFNFEFINDTVTGGVMPRITSYFSGTDLAYRPGTASGREAELLAPFAADLPPGTLEGYALPQGDGTARNRTNLRRAAQFLEQAGFRIEQGQLLGPDGAPLALRFLLRQGDSDMQTVLEIYTRALERLGIAAQIEKVDNAQYTARVAELDFDLTPFRRDLSLSPGNEQRLYWGSHSAGQPGTRNLMGAASPAIDAMIDRMLAATTEDELTAATRALDRVLTAGRYVIPIWR | soluble |
| SNALFSSRDILEVLQDIHMETGETVAIATKNDIYLQYIQIIESVHALRFHVDENAIRPLTMSSNGWMLMSTMNDKAIDNTVRRANTITQKDGIRFEVDDMMARIRQVREQGYASAEHIPFVGGGTICVLLPMTIQGQPVTMGLGGALDRIKQNYDRYLELLLNGVQQLKKSDSFHQPI | soluble |
| SNAMAHEAQKAIARNSLLIRSLPEQHVDALLSQAVWRSYDRGETLFLQEEKAQAIHVVIDGWVKLFRMTPTGSEAVVSVFTRGESFGEAVALRNTPYPVSAEAVTPCEVMHIPSPVFVSLMRRDPEICISILATTFGHLHSLVAQLEQLKAQTGAQRVAEFLLELCDCDTGACEVTLPYDKMLIAGRLGMKPESLSRAFSRLKAAGVTVKRNHAEIEDIALLRDYAESDPADSWSES | soluble |
| SNAMDIVSVALQRYSTKAFDPSKKLTAEEADKIKTLLQYSPSSTNSQPWHFIVASTEEGKARVAKSAAGNYTFNERKMLDASHVVVFCAKTAMDDAWLERVVDQEDADGRFATPEAKAANDKGRRFFADMHRVSLKDDHQWMAKQVYLNVGNFLLGVAAMGLDAVPIEGFDAEVLDAEFGLKEKGYTSLVVVPVGHHSVEDFNAGLPKSRLPLETTLTEV | soluble |
| SNAMFKEAINNYLHTHGYESIDLKAVLFDMDGVLFDSMPNHAESWHKIMKRFGFGLSREEAYMHEGRTGASTINIVSRRERGHDATEEEIKAIYQAKTEEFNKCPKAERMPGALEVLTKIKSEGLTPMVVTGSGQTSLLDRLNHNFPGIFQANLMVTAFDVKYGKPNPEPYLMALKKGGFKPNEALVIENAPLGVQAGVAAGIFTIAVNTGPLHDNVLLNEGANLLFHSMPDFNKNWETLQSALKQD | soluble |
| SNAMKQLTILGSTGSIGNSTLSVVRANPELFKVTALVAGRNVREMAQQCLEFSPRYAAMSDEHSAKSLRLLLAEQGSDTEVYSGETAACELAALDDVDQVMAAIVGIAGLPSTLAAIRAGKQVLLANKESLITCGKLFMDEVKRSRAQLLPIDSEHNAIFQSLPERIQRQLGYSSLNENGVSRIILTGSGGPFRETPLSQFSDVTPDQACAHPNWSMGRKISVDSATMMNKGLEYIEARWLFNASAEQIEVVLHPQSVIHSMVRYHDGSILAQMGTPDMRTPIAHAMAYPMRVSSGVAPLDFCKVGALTFTTPDYQRYPCLKLAIDACNAGQAATTALNAANEISVMAFLDSKIRFTDIEVINRTVVEGLLLSEPTSVEEVLVIDRKARDVAAQVIAKLNN | soluble |
| SNAMVQAQTRDQIVAAADELFYRQGFAQTSFVDISAAVGISRGNFYYHFKTKDEILAEVIRLRLARTAQMLADWQGTGDSPRARIASFIDLMIMNRAKITRYGCPVGSLCTELSKLDHAAQGQANGLFTLFRDWLQRQFAEAGCTTEAPALAMHLLARSQGAATLAQSFHDEGFLRSEVADMHRWLDNTLPMTT | soluble |
| SNASVFDLFSIGIGPSSSHTVGPMLAANAFLQLLEQKNLFDKTQRVKVELYGSLALTGKGHGTDKAILNGLENKAPETVDPASMIPRMHEILDSNLLNLAGKKEIPFHEATDFLFLQKELLPKHSNGMRFSAFDGNANLLIEQVYYSIGGGFITTEEDFDK | soluble |
| SNATGLGELKISDTICAQNAVEALPALSVDEPTVTMTFQVNTSPFAGKEGKFVTSRNILERLEKELVHNVALRVEQTDDPDKFRVSGRGELHLSILIENMRREGFELAVSRPEVIIKEEDGQLMEPFETVTIDVMEEHQGGIMENIGLRKGELKDMAPDGKGRVRMDFIMPSRGLIGFQTEFMTLTSGSGLLYHTFDHYGPHKGGNIGQRVNGVLIANAAGKALTNALFNLQERGRLFIGHGVEVYEGMVIGIHSRDNDLTVNALKGKQLTNVRASGTDDAQVLTPPIVMTLEQALEFIDDDELVEVTPESIRIRKKFLTESDRKRASRSAK | soluble |
| SNAVRQVEEYIEANWMRPITIEKLTALTGISSRGIFKAFQRSRGYSPMAFAKRVRLQHAHNLLSDGATPTTVTAAALSCGFSNLGHFARDYRDMFGEKPSETLQRARP | soluble |
| SNKGGGSGGGSGGGSGPTAAAAAAALQKQKALLQRVETDITSVVDNFTQIVNVSRVSDPPVKNSQETYMMEMRASRMATQVLLKDFLMSLWSVVNLLPHQWWQVQAADSLLKLVSELKQTAIFSGFASLNDHVEQRIEEFDQEAEKTNRLLARIADDASANLKELESHYYSSAQRLTLDI | soluble |
| SNLLYKRWVERCRNIVDKLSEDRIGYVHVKGMDSQSFREVYSEVLGRCRNKEAIIVDTRHNGGGWLHDDLATLLSGKEYQRFVPRGQYIGSDPFNKWLKPSCVLVCEDNYSNAHGFPWVYKELKIGKLIGAPVPGTMTAVWWENQIDPSIVFGIPQVGCMDMRGQYAENHQLSPDIEVYNTPEKALAGEDQQLEAAVQEMLKTIGEKK | not soluble |
| SPDEQLLKQVSELLQQGEHAQALNVIQTLSDELQSRGDVKLAKADCLLETKQFELAQELLATIPLEYQDNSYKSLIAKLELHQQAAESPELKRLEQELAANPDNFELACELAVQYNQVGRDEEALELLWNILKVNLGAQDGEVKKTFMDILSALGQGNAIASKYRRQLYSILY | soluble |
| SPEAQTEIEESILEEYAIWRKNTPFLYDLVVTKPLEWPSLTCQWLPEKREFPNSDYYLEKIILGTQTDGNAQNYLMLAQVRLPNEKAEVDGSAYNNKENGSYGGFGMGQQGKIDIVQRIKHDGDVNRARYMPQNPQIIATKTVSGEVHIFDISKHPLKPPANNVASPQLRLRSPQKEGFGLCWNPNQEGRIISAGEDRRIFLWDILGGGDKEEYVNPLNVYGGHTDVVGDVSFHAHSQYLFGSVGDDRKIMLWDTRSSDVEHPSQEVEAHKDVINCLAFNPFSEHVLITGSADTTLCLWDLRSLNQPLHVFESHPGEILQALWSPFHETLFASCGKDRQVRIWDLSRIGEEQEPEDAEDGPPELLFVHGGHTSTVQELSWNPNEPFVIASVADDNILQLWSMAQHIYEDTDDESMTTELKEEDLE | soluble |
| SPLLLYTCLLWLPTSGLWTVQAMDPNAAYVNMSNHHRGLASANVDFAFSLYKHLVALSPKKNIFISPVSISMALAMLSLGTCGHTRAQLLQGLGFNLTERSETEIHQGFQHLHQLFAKSDTSLEMTMGNALFLDGSLELLESFSADIKHYYESEVLAMNFQDWATASRQINSYVKNKTQGKIVDLFSGLDSPAILVLVNYIFFKGTWTQPFDLASTREENFYVDETTVVKVPMMLQSSTISYLHDAELPCQLVQMNYVGNGTVFFILPDKGKMNTVIAALSRDTINRWSAGLTSSQVDLYIPKVTISGVYDLGDVLEEMGIADLFTNQANFSRITQDAQLKSSKVVHKAVLQLNEEGVDTAGSTGVTLNLTSKPIILRFNQPFIIMIFDHFTWSSLFLARVMNPV | soluble |
| SQACVMPSLLQNMVGFSEVARATQTDPRPQRPAPPQPQVATMPWSQPGSWARRGFVPAWSQPPALSQQKLARQCCLGPWAGLIPHQQPLPRHPPQASSFPTTAGLWPPAFAQCGTLGHRAIYLVLWPPFLGPWLSSLQEKPHFIPQLPPACTPHPVPWWGLSIPGSKGRRSAPFLPLSLGRLGAQLWKHHPATHLSCGSRFFGGS | soluble |
| SRDEIATTVFFVTRLVKKHDKLSKQQIEDFAEKLMTILFETYRSHWHSDCPSKGQAFRCIRINNNQNKDPILERACVESNVDFSHLGLPKEMTIWVDPFEVCCRYGEKNHPFTVASFKGRWEEWELYQQISYAVSRASSDVSSGTSCDEESCSKEPRVIPKVSNPKSIYQVKSVPVLFYTFFLSNSKKNALIMKTKKQKNMERTKL | soluble |
| SREEFEQILQERNELKAKVFLLKEELAYFQRELLTDHRVPSLLLEAMKVAVRKQRKKIKAKMLGT | soluble |
| SRLDIIRAEMDVVPSPGLPEKVNEKSKNIPLPEGINLLSSKEIIDLIQTHRHQLELYVTKFNPLTDFAGKIHAFRDQFKQLEENFEDLHEQKDKVQALLENARILESKYVASWQDYHSEFSKKYGDIALKKKLEQNTKKLDEESSQLETTTRSIDSADDLDQFIKNYLDIRTQYHLRREKLATWDKQGNLKY | soluble |

From the DeepSol protein solubility set
